In publication PMC3315527 (2012) one finds Ka and Kd data, which are given here for two molecules.

One assay addresses T1, OEP61 (recombinant) (Arabidopsis thaliana).
T1 chain: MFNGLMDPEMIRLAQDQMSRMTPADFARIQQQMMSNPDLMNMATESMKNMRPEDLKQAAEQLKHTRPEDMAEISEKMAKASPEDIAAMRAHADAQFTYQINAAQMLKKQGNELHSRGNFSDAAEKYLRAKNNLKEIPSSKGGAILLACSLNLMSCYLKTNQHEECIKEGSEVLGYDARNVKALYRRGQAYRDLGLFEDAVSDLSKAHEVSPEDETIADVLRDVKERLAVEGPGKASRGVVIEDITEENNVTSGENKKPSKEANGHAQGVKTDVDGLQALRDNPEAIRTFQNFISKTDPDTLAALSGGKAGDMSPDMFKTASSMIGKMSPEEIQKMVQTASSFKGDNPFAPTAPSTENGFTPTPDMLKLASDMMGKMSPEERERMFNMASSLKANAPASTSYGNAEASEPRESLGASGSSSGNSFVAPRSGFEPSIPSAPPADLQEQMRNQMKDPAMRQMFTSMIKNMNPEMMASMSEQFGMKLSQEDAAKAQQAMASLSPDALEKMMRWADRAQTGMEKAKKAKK
Kind of assay: from ref 7.

The target of assay [1] is chaperone receptors within native chloroplast membranes (dynamic TIRE). Kind of assay: native chloroplast membranes.
Another assay deals with T2, Toc64 (recombinant) (Pisum sativum).
T2 chain: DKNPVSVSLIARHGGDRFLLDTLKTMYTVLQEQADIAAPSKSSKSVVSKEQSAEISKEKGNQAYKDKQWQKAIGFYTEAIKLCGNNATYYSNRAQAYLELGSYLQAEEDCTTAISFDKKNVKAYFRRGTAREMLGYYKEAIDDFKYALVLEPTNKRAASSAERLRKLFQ
Kind of assay: from ref 7.

B1: Hsp70-1 (At5g02500), full length (natural protein)
chain: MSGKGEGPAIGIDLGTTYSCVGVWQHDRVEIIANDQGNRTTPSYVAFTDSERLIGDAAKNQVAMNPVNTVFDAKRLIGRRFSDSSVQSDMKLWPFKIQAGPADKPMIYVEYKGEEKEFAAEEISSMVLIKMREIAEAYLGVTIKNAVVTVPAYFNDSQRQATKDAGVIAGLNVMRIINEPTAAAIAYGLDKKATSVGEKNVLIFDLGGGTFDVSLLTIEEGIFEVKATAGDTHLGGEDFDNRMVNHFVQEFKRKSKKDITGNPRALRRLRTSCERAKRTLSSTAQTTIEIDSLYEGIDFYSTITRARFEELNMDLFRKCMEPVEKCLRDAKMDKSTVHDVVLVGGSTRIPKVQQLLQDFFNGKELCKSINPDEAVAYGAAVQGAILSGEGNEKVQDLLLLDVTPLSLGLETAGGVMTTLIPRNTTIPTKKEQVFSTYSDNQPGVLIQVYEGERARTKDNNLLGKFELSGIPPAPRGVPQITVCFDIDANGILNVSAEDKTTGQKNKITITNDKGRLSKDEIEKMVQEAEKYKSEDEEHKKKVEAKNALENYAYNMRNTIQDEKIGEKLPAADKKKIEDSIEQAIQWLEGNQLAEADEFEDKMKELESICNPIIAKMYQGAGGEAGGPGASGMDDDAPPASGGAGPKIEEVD
The Kd is the equilibrium constant for the complex coming apart. High values mean lower affinity, low ones higher affinity. As to B1, in the assay with OEP61 (recombinant), the Ka turned out to be 1.03e+09 M⁻¹. The molecule further gave a dissociation constant Kd in assay [1] of 109 nM.

B2: Hsp90-2 (At5g56030), full length (natural protein)
chain: not shown
Regarding B2, the Ka with Toc64 (recombinant) was 7.6e+08 M⁻¹. Also, the dissociation constant Kd in assay [1] amounted to 114 nM.
